Key:
FGF-2 = FGF-2 (Homo sapiens, UniProt P09038); assay: Recombinant GF binding to the vWF recombinant protein and A1 HBD peptide (ELISA); design: All growth factors (GFs) and chemokines were purchased in their mature forms; purchased PeproTech; host or cells: Escherichia coli; conditions: plate coated with vWF protein, A1 domain or HBD peptide, 1 μg/mL GF
Procedure: ELISA tests were performed as described above. In brief, ELISA plates were coated with 1 μg/mL of FL-vWF (WT or R1341Q), 1 μg/mL of vWF A1 recombinant protein (U-Protein Express) or 1 μg/mL of vWF A1 HBD peptide (sequence […], (SEQ ID NO:50) chemically synthesized by Genscript) at 37° C. overnight. After blocking with 2% BSA solution containing PBS-T, 1 μg/mL of the recombinant human proteins VEGF-A121, VEGF-A165, PlGF-1, PlGF-2, PDGF-BB, FGF-2, CXCL-12α and CXCL-12γ were added. 1 μg/mL of BSA served as non-binding protein control. Bound GF or chemokine was detected with biotinylated antibodies for human VEGF-A, PlGF, PDGF-BB, FGF-2, or CXCL-12 (R & D Systems). The antibodies were detected by streptavidin-HRP (R & D Systems). Color development and the absorbance measurement were done as described above.

human lung fibroblasts = assay: Cell adhesion assay on vWF HBD coated plates; assay type: cell-based; conditions: 1 μg/mL vWF HBD coated plates
Procedure: Cell adhesion assays were performed using starved human lung fibroblasts (Lonza) in FGM-2 medium (Lonza) with or without 5 mM EDTA. Cells were plated at 3000 cells/well on 1 μg/mL vWF HBD pre-coated 96-well plates (non-tissue culture treated, Greiner Bio-one) and incubated for 30 min at 37° C. Then, the medium was removed, and wells were further washed three times with new FGM-2 medium. Cell numbers were quantified using a CyQUANT assay (Invitrogen).

PDGF-BB = target: T1, PDGF-BB (Homo sapiens, UniProt P01127); assay: Surface plasmon resonance, vWF against GF; conditions: SPR; vWF immobilized; two estimated binding sites, heterogeneous ligand-parallel reaction fit; read-out: lowest KD value for PDGF-BB
T1 construct: All growth factors (GFs) and chemokines were purchased in their mature forms; purchased PeproTech; host or cells: Escherichia coli
Procedure: SPR assays were performed as described previously2. In brief, measurements were made with a Biacore X100 SPR system or Biacore 3000 SPR system (GE Healthcare). Plasma-derived vWF was immobilized via amine coupling on a C1 chip (GE Healthcare) for 2000 resonance units (RU) according to the manufacturer's instructions. Recombinant human VEGF-A165, VEGF-A121, or PDGF-BB was flowed at increasing concentrations in the running buffer at 30 μL/min. The sensor chip was regenerated with glycine at pH 2 for every cycle. Specific binding of GFs to vWF was calculated automatically using the response to a non-functionalized channel as a reference. Binding curves were fitted using BIAevalution software (GE Healthcare). vWF-VEGF-A165 binding results were fitted with Langmuir binding kinetics (1:1 binding with drifting baseline Rmax local). vWF-PDGF-BB binding results were fitted with heterogeneous ligand-parallel reaction.

IGF-I = target: T2, IGF-I (Homo sapiens, UniProt P05019); assay: vWF binding to recombinant GFs (ELISA); conditions: VEGF-A121 signal as baseline
T2 construct: All GFs and chemokines were purchased in their mature forms; purchased PeproTech; host or cells: Escherichia coli
Procedure: (§1) ELISA tests were performed as previously reported1. In brief, ELISA plates (med-binding, Greiner Bio-One) were coated with 50 nM GFs at 37° C. for 2 hrs. After blocking with 2% BSA solution containing PBS-T, 1 μg/mL of plasma-derived vWF (EMD Millipore) was added. Bound vWF was detected with 1 μg/mL of rabbit anti-human vWF antibody (Sino Biological). Then, HRP conjugated goat anti-rabbit antibody (Jackson ImmunoResearch) was added. After 60 min of incubation, 50 μL TMB substrate (Sigma-Aldrich) was added. The reaction was stopped by adding 25 μL of 2N H2SO4. Subsequently, the absorbance at 450 nm was measured and subtracted the absorbance at 570 nm.

FGF-7 = target: T3, FGF-7 (Homo sapiens, UniProt P21781); assay: vWF binding to recombinant GFs (ELISA); conditions: VEGF-A121 signal as baseline
T3 construct: All GFs and chemokines were purchased in their mature forms; purchased PeproTech; host or cells: Escherichia coli
T3 sequence (P21781 32-194): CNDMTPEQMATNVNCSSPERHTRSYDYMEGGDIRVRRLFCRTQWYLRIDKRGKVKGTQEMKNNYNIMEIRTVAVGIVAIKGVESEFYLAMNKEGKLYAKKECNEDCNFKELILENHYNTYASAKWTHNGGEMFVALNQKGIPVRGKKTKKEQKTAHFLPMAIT
Procedure: as §1

CXCL-12α = target: T4, CXCL-12α (Homo sapiens, UniProt P48061); assay: vWF binding to recombinant GFs (ELISA); conditions: VEGF-A121 signal as baseline
T4 construct: All GFs and chemokines were purchased in their mature forms; purchased PeproTech; host or cells: Escherichia coli
Procedure: as §1

TGF-β3 = target: T5, TGF-β3 (Homo sapiens, UniProt P10600); assay: vWF binding to recombinant GFs (ELISA); conditions: VEGF-A121 signal as baseline
T5 construct: All GFs and chemokines were purchased in their mature forms; purchased PeproTech; host or cells: eukaryotic cells (not specified)
T5 sequence (P10600 301-412 limits assumed): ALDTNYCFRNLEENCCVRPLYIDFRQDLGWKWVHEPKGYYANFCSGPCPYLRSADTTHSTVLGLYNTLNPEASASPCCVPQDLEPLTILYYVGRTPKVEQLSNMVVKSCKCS
Procedure: as §1

PDGF-CC = target: T6, PDGF-CC (Homo sapiens, UniProt Q9NRA1); assay: vWF binding to recombinant GFs (ELISA); conditions: VEGF-A121 signal as baseline
T6 construct: All GFs and chemokines were purchased in their mature forms; purchased PeproTech; host or cells: Escherichia coli
Procedure: as §1

BMP-7 = target: T7, BMP-7 (Homo sapiens, UniProt P18075); assay: vWF binding to recombinant GFs (ELISA); conditions: VEGF-A121 signal as baseline
T7 construct: All GFs and chemokines were purchased in their mature forms; purchased PeproTech; host or cells: eukaryotic cells (not further specified)
T7 sequence (P18075 293-431): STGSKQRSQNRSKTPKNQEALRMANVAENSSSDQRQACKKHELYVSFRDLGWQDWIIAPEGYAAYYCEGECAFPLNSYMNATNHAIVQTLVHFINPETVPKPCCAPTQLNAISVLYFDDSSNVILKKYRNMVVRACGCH
Procedure: as §1

TGF-β1 = target: T8, TGF-β1 (Homo sapiens, UniProt P01137); assay: vWF binding to recombinant GFs (ELISA); conditions: VEGF-A121 signal as baseline
T8 construct: All GFs and chemokines were purchased in their mature forms; purchased PeproTech; host or cells: eukaryotic cells (not specified)
Procedure: as §1

FGF-1 = target: T9, FGF-1 (Homo sapiens, UniProt P05230); assay: vWF binding to recombinant GFs (ELISA); conditions: VEGF-A121 signal as baseline
T9 construct: All GFs and chemokines were purchased in their mature forms; purchased PeproTech; host or cells: Escherichia coli
Procedure: as §1

β-NGF = target: T10, β-NGF (Homo sapiens, UniProt P01138); assay: vWF binding to recombinant GFs (ELISA); conditions: VEGF-A121 signal as baseline
T10 construct: All GFs and chemokines were purchased in their mature forms; purchased PeproTech; host or cells: Escherichia coli
Procedure: as §1

IGF-II = target: T11, IGF-II (Homo sapiens, UniProt P01344); assay: vWF binding to recombinant GFs (ELISA); conditions: VEGF-A121 signal as baseline
T11 construct: All GFs and chemokines were purchased in their mature forms; purchased PeproTech; host or cells: Escherichia coli
Procedure: as §1

CXCL-11 = target: T12, CXCL-11 (Homo sapiens, UniProt O14625); assay: vWF binding to recombinant GFs (ELISA); conditions: VEGF-A121 signal as baseline
T12 construct: All growth factors (GFs) and chemokines were purchased in their mature forms; purchased PeproTech; host or cells: Escherichia coli
T12 sequence (O14625 22-94): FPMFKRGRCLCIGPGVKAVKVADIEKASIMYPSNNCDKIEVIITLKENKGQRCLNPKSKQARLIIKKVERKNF
Procedure: as §1

T8 sequence (P01137 279-390 limits assumed, species assumed): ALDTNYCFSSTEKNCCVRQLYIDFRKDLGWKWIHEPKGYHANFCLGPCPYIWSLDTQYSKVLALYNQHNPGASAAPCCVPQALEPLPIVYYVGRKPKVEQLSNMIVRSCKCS
T4 sequence (P48061 22-89 limits assumed): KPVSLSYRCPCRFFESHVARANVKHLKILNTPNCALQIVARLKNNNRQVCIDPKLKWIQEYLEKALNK
T9 sequence (P05230 16-155 limits assumed): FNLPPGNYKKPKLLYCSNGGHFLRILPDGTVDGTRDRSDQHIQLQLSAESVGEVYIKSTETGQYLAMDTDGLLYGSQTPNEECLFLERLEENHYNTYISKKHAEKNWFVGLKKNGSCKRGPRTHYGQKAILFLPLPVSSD
T6 sequence (Q9NRA1 235-345 limits assumed): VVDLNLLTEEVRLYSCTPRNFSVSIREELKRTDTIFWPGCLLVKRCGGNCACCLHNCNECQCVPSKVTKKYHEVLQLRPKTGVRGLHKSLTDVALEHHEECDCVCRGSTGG
T1 sequence (P01127 82-190 limits assumed): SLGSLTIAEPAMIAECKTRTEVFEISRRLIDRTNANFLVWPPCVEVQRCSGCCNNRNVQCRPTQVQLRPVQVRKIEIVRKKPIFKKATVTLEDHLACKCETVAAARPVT
FGF-2, sequence (P09038 143-288): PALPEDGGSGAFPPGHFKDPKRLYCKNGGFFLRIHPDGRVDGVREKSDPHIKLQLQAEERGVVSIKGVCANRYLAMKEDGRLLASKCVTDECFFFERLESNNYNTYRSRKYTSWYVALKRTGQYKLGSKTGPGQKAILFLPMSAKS
T10 sequence (P01138 122-241, species assumed): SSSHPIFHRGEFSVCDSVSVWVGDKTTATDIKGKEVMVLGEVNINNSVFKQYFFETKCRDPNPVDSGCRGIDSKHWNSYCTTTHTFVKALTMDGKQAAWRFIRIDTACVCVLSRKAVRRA

YIGLKDRKRPSELRRIASQVKYAC [vWF HBD]
binding to FGF-2 (FGF-2): showed binding | fibroblast attachment with EDTA (human lung fibroblasts; 5 mM EDTA): inhibited | fibroblast attachment (human lung fibroblasts; 30 min, without EDTA): significantly enhanced fibroblast attachment

vWF: human plasma-derived von Willebrand factor (EMD Millipore)
Kd (PDGF-BB): 24 nM | vWF binding to IGF-I (IGF-I): Neither insulin-like growth factor-I (IGF-I) nor IGF-II bound | vWF binding to FGF-7 (FGF-7): bound | vWF binding to CXCL-12α (CXCL-12α): did not | vWF binding to TGF-β3 (TGF-β3): not | vWF binding to PDGF-CC (PDGF-CC): bound | vWF binding to BMP-7 (BMP-7): not | vWF binding to TGF-β1 (TGF-β1): strong binding | vWF binding to FGF-1 (FGF-1): not | vWF binding to β-NGF (β-NGF): relevant binding | vWF binding to IGF-II (IGF-II): Neither insulin-like growth factor-I (IGF-I) nor IGF-II bound | vWF binding to CXCL-11 (CXCL-11): bound

Source: US11732029B2, “Methods and compositions for the treatment of wounds” (The University of Chicago, priority 2017, dated 2023)
